Reference: patent US20230270832A1 (TSCAN THERAPEUTICS, published 2023)

B1: MAGEA1 TCR 32-39 (TCR, V domains shown)
V domain 1: DQQVKQNSPSLSVQEGRISILNCDYTNSMFDYFLWYKKYPAEGPTFLISISSIKDKNEDGRFTVFLNKSAKHLSLHIVPSQPGDSAVYFCAASAQNNDMRFGAGTRLTVKP
V domain 2: NAGVMQNPRHLVRRRGQEARLRCSPMKGHSHVYWYRQLPEEGLKFMVYLQKENIIDESGMPKERFSAEFPKEGPSILRIQQVVRGDSAAYFCASSPSYEQYFGPGTRLTVTE
B2: MAGEA1 TCR 32-41 (TCR, V domains shown)
V domain 1: QLLEQSPQFLSIQEGENLTVYCNSSSVFSSLQWYRQEPGEGPVLLVTVVTGGEVKKLKRLTFQFGDARKDSSLHITAAQPGDTGLYLCAGDESISYGKLTFGQGTILTVHP
V domain 2: DAGVIQSPRHEVTEMGQEVTLRCKPISGHDYLFWYRQTMMRGLELLIYFNNNVPIDDSGMPEDRFSAKMPNASFSTLKIQPSEPRDSAVYFCASSFLGWNEKLFFGSGTQLSVLE

Key:
[1] = molecular target: … (10) (Homo sapiens, UniProt C*07:02); assay: cell-based or functional assay
[2] = molecular target: MAGEA1 peptide VRFFFPSL (SEQ ID NO: 1) presented by HLA-C*07:02 (human); assay: cell-based or functional assay

Binder	EC50 (read off the curve) [left panel '4hr Killing (IFP)'] [1]	EC50 [table, row MAGEA1, column Peptide EC50] [2]
B1	~8 ng/mL	
B2		~250 pM
